This passage reports binding result and EC50 results from patent US20090304580A1 (published 2009).

Positions of bridges follow the written chain, without caps; N, C: chain ends. No end group written: not given here.

Test [1] deals with T1, cyclic phage-displayed peptide ACPEWWGTTC (disulfide 2-10).
T1 construct: also called cyclic peptide
T1 peptide: ACPEWWGTTC
In words: screen of phage-displayed peptides (cyclic library) after panning against hPAM4.

In test [2] the target is T2, PAM4 antigen (human pancreatic cancer mucin, CaPan1) (human).
T2 construct: Mucin preparation or cell extract from human pancreatic cancer (CaPan1 xenografts); coated on plates or captured by PAM4 in the immunoassays; also called CaPan1 Ag; CaPan1 antigens
In words: ELISA on target mucin antigen (FIG. 9).

B1: humanized PAM4 antibody (hPAM4 IgG) (antibody, V domains shown)
VH: QVQLQQSGAEVKKPGASVKVSCEASGYTFPSYVLHWVKQAPGQGLEWIGYINPYNDGTQYNEKFKGKATLTRDTSINTAYMELSRLRSDDTAVYYCARGFGGSYGFAYWGQGTLVTVSS
VL: DIQLTQSPSSLSASVGDRVTMTCSASSSVSSSYLYWYQQKPGKAPKLWIYSTSNLASGVPARFSGSGSGTDFTLTISSLQPEDSASYFCHQWNRYPYTFGGGTRLEIKR
As to B1, in test [1], the binding result is recorded as “binds”. A half-maximal response in test [2] (EC50) required 1.31 nM.
